Results taken from patent publication US8039438B2, “Synthetic peptides that cause F-actin bundling and block actin depolymerization” (The Regents of the University of California, priority 2003, dated 2011).

How the values were obtained:
rabbit muscle actin = molecular target: T1, rabbit muscle actin (Oryctolagus cuniculus, UniProt P68135); assay: In vitro bundling of actin by peptides (co-polymerization, differential centrifugation, SDS gel); type: biochemical
T1 construct: Purified rabbit muscle actin (Cytoskeleton Inc., Denver, Mo.); purchased Cytoskeleton Inc; host or cells: rabbit muscle
Procedure: The peptides in Table 2 were added to polymerised actin in vitro at different molar ratios. Centrifugation was used to separate fractions containing F-actin, G-actin and bundled actin, which were then run out on […]. Purified rabbit muscle actin (Cytoskeleton Inc., Denver, Mo.) was depolymerized in Low Salt Buffer [LSB; 5 mM Tris-HCl, pH 8.0, 0.2 mM CaCl2, 0.2 mM ATP, 0.5 mM DTT, mM sucrose) for 1 h on ice and denucleated by centrifugation for 1 h at 100,000×g, 4° C. 13 μM monomeric actin was polymerized in vitro by addition of 1/50 vol. […] The samples were centrifuged for 15 min at 10,000×g at room temperature to pellet “bundled filaments”. The resulting supernatant was centrifuged for 1 h at 100,000×g at room temperature to separate F-actin filaments […]. The fractions were boiled in SDS-sample buffer and analyzed on a 10% SDS-Polyacrylamide gel stained with Coomassie.

MCF7 cells = assay: Cytokinesis in MCF7 cells imaged after addition of peptide; type: cell-based; settings: MCF7 cells electroporated with GFP-actin, peptide in DMSO, imaged up to 4 hours
Procedure: MCF7 cells were electroporated with GFP-actin and imaged (image not shown). After addition of peptide in DMSO, the MCF7 cells were continuously imaged for up to 4 hours. […] The actin filaments within the cells were observed by fluorescence and had the appearance of spikes. Thus it appears that treatment by the active peptide results in inhibition of cytokinesis and blocks cell division.

GIVRKWISRFEVWPYL (SS12 active synthetic peptide)
bundling of actin during in vitro polymerization (rabbit muscle actin): most active
bundled actin upon inducing polymerization (rabbit muscle actin; 1:1 molar ratio peptide:actin, polymerization induced (PI +), FIGS. 6C, 6D): the bulk of the actin is bundled
bundled actin with peptide alone (rabbit muscle actin; 1:1 molar ratio peptide:actin, polymerization not induced, FIGS. 6C, 6D): half of the actin bundled
In vitro actin bundling activity (rabbit muscle actin; Tables 2 and 3, peptide co-polymerized with actin in vitro): active
free F-actin band (rabbit muscle actin; molar ratio 10:1, FIG. 6E): very small bands
free F-actin band (rabbit muscle actin; molar ratio 100:1, FIG. 6E lane 6): clearly no band of free F-actin
form of actin (rabbit muscle actin; molar ratio peptide to actin 50, FIG. 6F): all of the actin is in the bundled form
activity designation of the peptide in the sequence list (active / less active / inactive) (rabbit muscle actin; summary sequence table): SS12 active
cytokinesis and nuclear division (MCF7 cells): cytokinesis but not nuclear division was blocked
